Experimental data reported in the supplement of paper PMC10567573.

B1: ZNF649 (parent)
chain: YHTGKTPFVCPECGQPCSQKSGLI
B2: KRT18 (parent)
chain: RVRSLETENRRLESKIREHLEKKG

Variants of: B1
Test: protein stability index of a GFP-peptide fusion (GPS, HEK-293T) (PSI 1-6); higher = more stable
Conditions: c terminus: a fixed tail appended
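Further: lentivirally expressed fusions sorted by FACS into six bins by GFP to DsRed ratio, PSI derived from sequencing read proportions per bin multiplied by bin number.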

Protein stability index, by site and new letter:
I24: S 1.45, M 1.84, T 2.01, P 1.54, K 1.84, A 1.08, Y 1.59, C 3.08, E 2.12, H 2.42, V 1.67, N 1.99, G 2.94, L 1.52, F 2.92, Q 2.33, D 1.36
S18: E 3.48, D 2.25, W 1.82, I 2.47, N 1.22, V 1.44, A 2.31, G 1.43, C 2.08, K 1.46, F 2.27, Y 2.4, H 1.26, P 2.26, T 2.5, L 1.85, Q 1.49, M 3.02
S21: E 1.85, A 1.4, G 2.41, L 2.15, P 1.9, D 1.76, I 1.67, F 1.89, V 1.6, K 1.4, Q 1.56, R 1.92, M 2.26, Y 2.56, H 1.81, C 2.32, T 1.96, N 1.93
L23: Y 1.72, W 1.16, R 1.92, T 2.2, V 2.58, P 2.15, D 2.12, S 2.72, N 3.38, I 2.03, M 1.46, K 2.56, G 4.1, Q 3.01, H 2.05, E 1.03, C 2.83, A 1.59
Q19: N 1.59, P 2.04, I 1.57, M 2.49, C 2.69, S 2.96, H 2.2, F 2, A 1.58, K 1.29, R 2.27, G 1.49, W 1.23, D 2.37, T 2.81, E 1.71
K20: D 1.72, N 1.07, L 1.37, R 2.69, T 1.8, C 4.04, V 1.43, A 2.05, E 1.35, Q 3.76, I 3.23, S 2.53, P 2.1, Y 3.04, H 2.43, M 1.53
P16: M 1.86, R 1.54, V 2.44, F 2.1, E 2.79, Y 1.04, N 1.23, K 1.98, L 2.82, H 2.65, S 1.9, T 1.34, Q 2.37, G 2.99, I 1.87
G22: E 2.32, A 1.81, Y 3, Q 2.2, C 2.19, L 2.97, T 1.65, N 2.3, W 1.63, K 1.89, R 2.22, M 1.87, H 2.72, D 1.49, S 2.63, V 2.92, P 2.91, F 2.34, I 2.15
C17: Q 1.96, I 2.01, A 3.38, E 1.48, S 2.81, D 2.63, H 1.73, M 2.14, V 2.26, N 2.76, F 1.59, P 2.54, K 3.83, T 2.04, G 2.94, L 1.66, Y 2.35

Variants of: B2
Test: as above
Conditions: c terminus: a fixed tail appended

Protein stability index, by site and new letter:
L20: N 4.78
V2: M 3.82
N9: R 3.81
E18: W 4.51, Q 3.75
K23: V 4.14
E21: L 3.19, C 4.28
H19: F 4
T7: P 4.9, R 4.1
I16: L 4.32
G24: L 4.03
